# Experimental data as given in IntAct's records for PubMed 16278825.
# B1: Protein unc-13 homolog D (Homo sapiens), Q70J99 (parent)
# chain: MATLLSHPQQRPPFLRQAIKIRRRRVRDLQDPPPQMAPEIQPPSHHFSPEQRALLYEDALYTVLHRLGHPEPNHVTEASELLRYLQEAFHVEPEEHQQTLQRVRELEKPIFCLKATVKQAKGILGKDVSGFSDPYCLLGIEQGVGVPGGSPGSRHRQKAVVRHTIPEEETHRTQVITQTLNPVWDETFILEFEDITNASFHLDMWDLDTVESVRQKLGELTDLHGLRRIFKEARKDKGQDDFLGNVVLRLQDLRCREDQWYPLEPRTETYPDRGQCHLQFQLIHKRRATSASRSQPSYTVHLHLLQQLVSHEVTQHEAGSTSWDGSLSPQAATVLFLHATQKDLSDFHQSMAQWLAYSRLYQSLEFPSSCLLHPITSIEYQWIQGRLKAEQQEELAASFSSLLTYGLSLIRRFRSVFPLSVSDSPARLQSLLRVLVQMCKMKAFGELCPNTAPLPQLVTEALQTGTTEWFHLKQQHHQPMVQGIPEAGKALLGLVQDVIGDLHQCQRTWDKIFHNTLKIHLFSMAFRELQWLVAKRVQDHTTVVGDVVSPEMGESLFQLYISLKELCQLRMSSSERDGVLALDNFHRWFQPAIPSWLQKTYNEALARVQRAVQMDELVPLGELTKHSTSAVDLSTCFAQISHTARQLDWPDPEEAFMITVKFVEDTCRLALVYCSLIKARARELSSGQKDQGQAANMLCVVVNDMEQLRLVIGKLPAQLAWEALEQRVGAVLEQGQLQNTLHAQLQSALAGLGHEIRTGVRTLAEQLEVGIAKHIQKLVGVRESVLPEDAILPLMKFLEVELCYMNTNLVQENFSSLLTLLWTHTLTVLVEAAASQRSSSLASNRLKIALQNLEICFHAEGCGLPPKALHTATFQALQRDLELQAASSRELIRKYFCSRIQQQAETTSEELGAVTVKASYRASEQKLRVELLSASSLLPLDSNGSSDPFVQLTLEPRHEFPELAARETQKHKKDLHPLFDETFEFLVPAEPCRKAGACLLLTVLDYDTLGADDLEGEAFLPLREVPGLSGSEEPGEVPQTRLPLTYPAPNGDPILQLLEGRKGDREAQVFVRLRRHRAKQASQHALRPAP
# B2: Ras-related protein Rab-27A (Homo sapiens), P51159 (parent)
# chain: MSDGDYDYLIKFLALGDSGVGKTSVLYQYTDGKFNSKFITTVGIDFREKRVVYRASGPDGATGRGQRIHLQLWDTAGQERFRSLTTAFFRDAMGFLLLFDLTNEQSFLNVRNWISQLQMHAYCENPDIVLCGNKSDLEDQRVVKEEEAIALAEKYGIPYFETSAANGTNISQAIEMLLDLIMKRMERCVDKSWIPEGVVRSNGHASTDQLSEEKEKGACGC
# partner: B1 chain
# Variants of: B1
# Conditions: with rb27a_human RAB27A
row,effect of a mutation on the interaction,Variant
1,disrupting interaction strength,L403P

# Variants of: B2
# Conditions: with un13d_human UNC13D
row,effect of a mutation on the interaction,Variant
1,disrupting interaction strength,T23N
2,disrupting interaction strength,A87P
3,with no effect,Q78L
